{
  "source": "paper PMC7545742",
  "about": "“A Toolbox for Site-Specific Labeling of RecQ Helicase With a Single Fluorophore Used in the Single-Molecule Assay”",
  "key": {"[1]": {"molecular_target": "T1, RecQ-Cy5 (sortase A ligation of RecQ516-LPETG and Cy5-GGG-HRDC) (Escherichia coli, UniProt P15043 1-516+=LPETGGG+524-609+=VD, E609C;internal_change)", "assay": "smFRET; 5 nM RecQ-Cy5, free protein washed off; EFRET 0 to ~0.5; duration 5.17 +/- 0.82 s; smFRET on DNA with biotinylated strand in reaction chamber; 5 nM RecQ-Cy5 bound 2 min, then washed; reaction buffer composition, pH and temperature not in the material", "conditions": "protein: recombinant; tags: Cy5-maleimide at C610; label: Cy3 3' of strand 1; biotin 3' of strand 2; 3' overhang 10 nt, 18 bp stem; one A:G mismatch (strand 1 nt 8)"}, "[2]": {"molecular_target": "T1, RecQ-Cy5 (sortase A ligation of …)", "assay": "smFRET; RecQ-Cy5, same conditions (5 nM); EFRET 0 to ~0.92; duration 5.19 +/- 0.28 s; HRDC contacts 5' end; smFRET on DNA with biotinylated strand in reaction chamber; 5 nM RecQ-Cy5 bound 2 min, then washed; reaction buffer composition, pH and temperature not in the material", "conditions": "protein: recombinant; tags: Cy5-maleimide at C610; label: Cy3 5' of strand 1; biotin 5' of strand 2; fork 1:2, 17 bp stem, 5' arm 7 nt (strand 1), 3' arm 10 nt (strand 2)"}, "wild-type RecQ helicase": {"molecular_target": "wild-type RecQ helicase (Escherichia coli, UniProt P15043 1-609)", "assay": "smFRET; EFRET 0.92 to 0.54; bound dwell time 4.47 +/- 0.23 s; smFRET on DNA with biotinylated strand in reaction chamber; 5 nM RecQ-Cy5 bound 2 min, then washed; reaction buffer composition, pH and temperature not in the material", "conditions": "protein: recombinant; label: Cy3 3' of strand 1; internal Cy5 after nt 4 and biotin 3' of strand 2; 3' overhang 10 nt, 16 bp stem; one A:G mismatch (strand 1 nt 8)"}, "[3]": {"molecular_target": "T1, RecQ-Cy5 (sortase A ligation of …)", "assay": "smFRET; 5 nM RecQ-Cy5, free protein washed off; EFRET 0 to ~0.84; duration 4.65 +/- 0.17 s; HRDC contacts 3' end; smFRET on DNA with biotinylated strand in reaction chamber; 5 nM RecQ-Cy5 bound 2 min, then washed; reaction buffer composition, pH and temperature not in the material", "conditions": "protein: recombinant; tags: Cy5-maleimide at C610; label: Cy3 3' of strand 1; biotin 3' of strand 2; 3' overhang 15 nt, 18 bp stem; one A:G mismatch (strand 1 nt 8)"}},
  "data": [
    {"binder": "3' 10-nt overhang DNA, Cy3 (mixed, none) DNA 1: AATCCGTAGAGCAGAGGTGTGTGTGGTG DNA 2: ACCTCTGCTCGACGGATT", "values": [
      {"measurement": "binding result", "setting": "[1]", "result": "binds"}
    ]},
    {"binder": "fork DNA, 10-nt 3' overhang and 7-nt 5' overhang (mixed, none) DNA 1: TTTTTTTATGTATGACAAGGAAGG DNA 2: CCTTCCTTGTCATACATAAATTTTTTT", "values": [
      {"measurement": "binding result", "setting": "[2]", "result": "binds"}
    ]},
    {"binder": "16 bp with 3' 10-nt overhang, Cy3/Cy5 (mixed, none) DNA 1: AATCCGTAGAGCAGAGGTGTGTGTGG DNA 2: CTCTGCTCGACGGATT", "values": [
      {"measurement": "binding result", "setting": "wild-type RecQ helicase", "result": "binds"}
    ]},
    {"binder": "3' 15-nt overhang DNA, Cy3 (mixed, none) DNA 1: AATCCGTAGAGCAGAGGTGTGTGTGGTGTTTTT DNA 2: ACCTCTGCTCGACGGATT", "values": [
      {"measurement": "binding result", "setting": "[3]", "result": "binds"}
    ]}
  ]
}
